Changes are numbered by the printed parent chain.
T1: GFP-9S library array, motif 4 ND N98V;D124K (synthetic construct, N98V;D124K)
T1 chain: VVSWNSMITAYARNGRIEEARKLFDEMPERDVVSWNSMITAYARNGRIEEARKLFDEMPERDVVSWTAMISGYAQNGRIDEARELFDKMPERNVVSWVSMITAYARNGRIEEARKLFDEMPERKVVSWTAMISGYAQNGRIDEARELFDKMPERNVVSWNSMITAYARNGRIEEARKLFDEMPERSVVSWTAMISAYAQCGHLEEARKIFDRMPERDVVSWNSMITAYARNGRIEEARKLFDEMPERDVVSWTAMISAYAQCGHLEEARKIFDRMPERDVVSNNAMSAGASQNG

T2: GFP-9S library array, motif 4 ND N98R;D124T (synthetic construct, N98R;D124T)
T2 chain: T1 chain with V98R, K124T

T3: GFP-9S library array, motif 4 ND N98L;D124C (synthetic construct, N98L;D124C)
T3 chain: T1 chain with V98L, K124C

T4: GFP-9S library array, motif 4 ND (synthetic construct)
T4 chain: T1 chain with V98N, K124D

T5: GFP-9S library array, motif 4 ND N98S;D124L (synthetic construct, N98S;D124L)
T5 chain: T1 chain with V98S, K124L


Experiments:
Test in all cases: high-throughput RNA pulldown from lysate on Ni-NTA beads; HRP: 50 mM Tris pH 8, 150 mM NaCl, 1 mM beta-mercaptoethanol, 50 ug/ml BSA, 3 ug/ml yeast RNA, 0.5% heparin; ITC and FP: Tris pH 8, 200 mM KCl, 5% glycerol; MST: 50 mM Tris pH 8, 200 mM NaCl, 1 mM DTT, BSA, heparin, 0.05% Tween 20
Conditions in all cases: tags: N-terminal His-eGFP
[1] = target: T1, GFP-9S library array, motif 4 ND …
[2] = target: T2, GFP-9S library array, motif 4 ND …
[3] = target: T3, GFP-9S library array, motif 4 ND …
[4] = target: T4, GFP-9S library array, motif 4 ND
[5] = target: T5, GFP-9S library array, motif 4 ND …

| Binder | Kd ([1]; label: 5' Cy5) | Kd ([2]; label: 5' Cy5) | Kd ([3]; label: 5' Cy5) | Kd ([4]; label: 5' Cy5) | Kd ([5]; label: 5' Cy5) | Kd ([1]; label: 5' IRDye 800CW) | Kd ([2]; label: 5' IRDye 800CW) | Kd ([3]; label: 5' IRDye 800CW) | Kd ([4]; label: 5' IRDye 800CW) | Kd ([5]; label: 5' IRDye 800CW) |
| --- | --- | --- | --- | --- | --- | --- | --- | --- | --- | --- |
| AUUACACGUGA (ssRNA) [Cy5-rpoA] | 97.1 nM | 74.7 nM | 89 nM | 19 nM | 83.5 nM |  |  |  |  |  |
| AUUAUACGUGA (ssRNA) [IR-rpoA-U] |  |  |  |  |  | 128 nM | 85.9 nM | 60.2 nM | 6.27 nM | 164 nM |
| AUUAAACGUGA (ssRNA) [IR-rpoA-A] |  |  |  |  |  | 146 nM | 173 nM | 98.7 nM | 86.8 nM | 159 nM |
| AUUAGACGUGA (ssRNA) [Cy5-rpoA-G] | 91.4 nM | 98.5 nM | 70.4 nM | 276 nM | 94 nM |  |  |  |  |  |

From PMC8809517, “Cofactor-independent RNA editing by a synthetic S-type PPR protein”
